Data on 13 molecules can be found in patent US20260191974A1 (UNIVERSITY OF NORTH CAROLINA AT CHAPEL HILL, published 2026).

Bridges are numbered along the chain shown (N, C = ends). DBX = not defined here

Assay [1] deals with T1, biotinylated B7-H3 (B7-H3b), immune checkpoint protein.
T1 construct: also called biotin immobilized B7-H3; streptavidin immobilized B7-H3
T1 sequence (Q5ZPR3 whole entry, species assumed, looked up): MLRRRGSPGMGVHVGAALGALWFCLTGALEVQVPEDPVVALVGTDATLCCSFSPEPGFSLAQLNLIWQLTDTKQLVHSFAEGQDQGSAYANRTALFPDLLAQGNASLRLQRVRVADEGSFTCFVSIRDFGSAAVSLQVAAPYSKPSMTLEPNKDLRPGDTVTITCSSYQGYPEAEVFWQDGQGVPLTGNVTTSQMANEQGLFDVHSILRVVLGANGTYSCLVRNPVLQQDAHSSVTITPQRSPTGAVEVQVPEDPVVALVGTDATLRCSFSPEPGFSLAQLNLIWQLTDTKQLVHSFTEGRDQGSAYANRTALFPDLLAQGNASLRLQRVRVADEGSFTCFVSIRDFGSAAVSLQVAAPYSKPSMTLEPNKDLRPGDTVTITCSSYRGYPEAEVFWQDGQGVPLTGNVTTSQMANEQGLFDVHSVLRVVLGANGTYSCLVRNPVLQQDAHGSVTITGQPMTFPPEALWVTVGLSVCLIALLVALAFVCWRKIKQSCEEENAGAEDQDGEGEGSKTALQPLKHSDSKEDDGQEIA
The assay can be described thus: JP5 alanine mutant library in mRNA display: background screen on beads, then selection on biotinylated B7-H3; NGS, enrichment in the selection over the input library. An excerpt: FIGS. 17A-17B. JP5 alanine mutant library design and screen. (FIG. 17A) Each library member with the parent JP5 sequence on the top. JP5 was mutated at each residue to an Alanine. All library members, and JP5, were screened first against background components (magnetic beads) to remove nonspecific binders and then against biotinylated B7-H3 (see FIG. 14B). […] A value of >1 indicates stronger enrichment in the selection, whereas a value<1 indicates a stronger enrichment in the input library.
A single variant library of JP5 (FIG. 13A) and JP3 (FIG. 14A) was carried out. Each residue was mutated to include potentially 20/20 canonical amino acids. All library members were screened first against background components (magnetic beads) to remove nonspecific binders and then against biotinylated B7-H3 (FIG. 13B). […] The recovered material from the B7-H3 selection of JP5 and JP3 was sent for NGS (FIG. 15 and FIG. 16, respectively). In addition, JP5 was subjected to an alanine mutant scan (FIG. 17A). All library members were screened first against background components (magnetic beads) to remove nonspecific binders and then against biotinylated B7-H3 (see FIG. 13B). […] The selected AMs will be tested with surface plasmon resonance (SPR) to assess binding affinity.

The target of assay [2] is T2, human B7-H3 (hB7-H3) (human, UniProt Q5ZPR3 29-461, limits assumed).
T2 construct: The construct is not described
T2 sequence (looked up): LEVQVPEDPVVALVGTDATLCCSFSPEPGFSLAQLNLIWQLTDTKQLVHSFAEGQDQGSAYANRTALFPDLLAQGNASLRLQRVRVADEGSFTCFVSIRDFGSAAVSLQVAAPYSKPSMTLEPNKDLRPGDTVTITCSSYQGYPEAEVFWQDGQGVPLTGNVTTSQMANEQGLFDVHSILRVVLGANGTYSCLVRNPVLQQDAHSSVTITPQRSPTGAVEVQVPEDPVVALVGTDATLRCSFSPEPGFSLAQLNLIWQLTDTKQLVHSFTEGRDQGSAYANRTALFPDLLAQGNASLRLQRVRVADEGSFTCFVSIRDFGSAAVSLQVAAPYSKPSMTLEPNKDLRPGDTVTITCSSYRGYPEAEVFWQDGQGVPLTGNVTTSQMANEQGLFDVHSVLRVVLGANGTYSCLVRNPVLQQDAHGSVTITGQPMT
The assay can be described thus: SPR; oxidized (with disulfide bridge). For orientation: SPR reads the build-up and loss of mass on a sensor chip optically.

The target in assay [3] is T3, murine B7-H3 (mB7-H3) (murine, UniProt Q8VE98 29-244, limits assumed).
T3 construct: The construct is not described
T3 sequence (looked up): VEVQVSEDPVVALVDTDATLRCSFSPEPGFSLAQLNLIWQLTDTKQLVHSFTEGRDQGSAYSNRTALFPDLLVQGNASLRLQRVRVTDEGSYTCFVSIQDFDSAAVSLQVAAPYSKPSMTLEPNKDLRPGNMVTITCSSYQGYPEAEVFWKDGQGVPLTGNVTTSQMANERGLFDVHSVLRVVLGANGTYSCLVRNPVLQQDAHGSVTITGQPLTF
Description: SPR; mB7-H3 as ligand on the chip, peptide as analyte.

The target in assay [4] is T1, biotinylated B7-H3 (B7-H3b), immune …. Description: SPR (BIACORE 8K, single-cycle kinetics, 1:1 fit); biotinylated B7-H3 on a NeutrAvidin chip, peptide as analyte at 7.5-120 nM. An excerpt: FIGS. 4A-4G. (FIG. 4A) Selection schematic detailing the selection process for identifying binders against B7-H3. (FIG. 4B) qPCR results of the mTG mediated B7-H3 selection. (FIG. 4C) B7-H3 selection results and complete NGS analysis of B7-H3 hits. (FIG. 4D) NGS data of the selection hits. […] Arrow indicates the peptide pursued for binding validation. (FIG. 4E) EIC ([M+2], 948.91 m/z) traces corresponding to the product of the mTG reaction with linear B1.1 peptide and the synthetic lactam, disulfide peptide. (FIG. 4F) Surface Plasmon Resonance (SPR) analysis of the selected peptide (B1.1), the Met9Nle variant, and the linear variant. […] The selected B1.1 and the Met9Nle variant were analyzed at analyte concentrations of 7.5, 15, 30, 60, 120 nM. The linear variant was analyzed at analyte concentrations of 50, 100, 200, 400, 800 nM. […] (FIG. 4G) Individual SPR curves. Fitted curve and raw data are shown.
Surface Plasmon Resonance (SPR) analysis. Binding kinetics between our selected peptide (and variants) and biotinylated B7-H3 (B7-H3b) were assessed through SPR analysis using a BIACORE 8K SPR system (GE Healthcare). […] Analyte was then injected over a series of five concentrations and quantified by BIACORE single-cycle kinetics method. […] Binding sonograms were generated using a standard 1:1 binding kinetics model and kinetics constants determined using standard BIACORE evaluation software.

Assay [5] addresses T2, human B7-H3 (hB7-H3). Description: SPR; hB7-H3 as ligand on the chip, peptide as analyte.
The target of assay [6] is T1, biotinylated B7-H3 (B7-H3b), immune …. The assay can be described thus: SPR, Biacore 8K single-cycle kinetics, biotinylated B7-H3 on NeutrAvidin chip, peptide as analyte. How it is done: Surface Plasmon Resonance (SPR) analysis. Binding kinetics between our selected peptide (and variants) and biotinylated B7-H3 (B7-H3b) were assessed through SPR analysis using a BIACORE 8K SPR system (GE Healthcare). The running buffer was 1×PBS pH7.5, 0.05% TWEEN® 20 and all analysis was carried out at 25° C. B7-H3b was loaded onto a NeutrAvidin SPR Chip (Series S Sensor Chip NA, 29407997, Cytiva) at a flow rate of […] to a surface density of 1000-1500 response units. Analyte was then injected over a series of five concentrations and quantified by BIACORE single-cycle kinetics method. For our selected peptide (B1.1) and the Met9Nle variant a range of 7.5, 15, 30, 60, 120 nM were run. For the linear variant concentrations of 50, 100, 200, 400, 800 nM were run. Binding sonograms were generated using a standard 1:1 binding kinetics model and kinetics constants determined using standard BIACORE evaluation software.

The target of assay [7] is T2, human B7-H3 (hB7-H3). The assay can be described thus: SPR; reduced (no disulfide bridge).
The target of assay [8] is T3, murine B7-H3 (mB7-H3). Description: SPR.
Assay [9] concerns the target T2, human B7-H3 (hB7-H3). The assay can be described thus: SPR.

B1: AM3 (peptide)
peptide: Ac-CWTARDINGTRC-NH2
modifications: bridge 1-12; also: bracket C1-C12, bond type not given here
notes: Member of the JP5 alanine mutant library; also called JP5 alanine mutant 3
For B1, the SELECTION/INPUT in assay [1] is 0.309.

B2: AM4 (peptide)
peptide: Ac-CWTIADINGTRC-NH2
modifications: bridge 1-12; also: bracket C1-C12, bond type not given here
notes: Member of the JP5 alanine mutant library; also called JP5 alanine mutant 4
For the molecule B2, in assay [1], the SELECTION/INPUT is 0.58.

B3: AM10 (peptide)
peptide: Ac-CWTIRDINGTAC-NH2
modifications: bridge 1-12; also: bracket C1-C12, bond type not given here
notes: Member of the JP5 alanine mutant library; also called JP5 alanine mutant 10
In turn, B3 showed an SELECTION/INPUT in [1] of 1.34.

B4: AM2 (peptide)
peptide: Ac-CWAIRDINGTRC-NH2
modifications: bridge 1-12; also: bracket C1-C12, bond type not given here
notes: Member of the JP5 alanine mutant library; also called JP5 alanine mutant 2
Turning to B4, in assay [1], the SELECTION/INPUT was 1.4.

B5: AM1 (peptide)
peptide: Ac-CATIRDINGTRC-NH2
modifications: bridge 1-12; also: bracket C1-C12, bond type not given here
notes: Member of the JP5 alanine mutant library; also called JP5 alanine mutant 1
On to B5, for which the SELECTION/INPUT in assay [1] turned out to be 0.33.

B6: AM8 (peptide)
peptide: Ac-CWTIRDINATRC-NH2
modifications: bridge 1-12; also: bracket C1-C12, bond type not given here
notes: Member of the JP5 alanine mutant library; also called JP5 alanine mutant 8
In turn, B6 showed an SELECTION/INPUT in assay [1] of 0.338.

B7: AM5 (peptide)
peptide: Ac-CWTIRAINGTRC-NH2
modifications: bridge 1-12; also: bracket C1-C12, bond type not given here
notes: Member of the JP5 alanine mutant library; also called JP5 alanine mutant 5
Take B7: the SELECTION/INPUT in [1] was 0.411.

B8: B1.1, selected cyclic, disulfide peptide (bicyclic: lactam and disulfide), synthetic, without the N-terminal methionine (peptide)
peptide: WALQLCHSMFYTCKSG
modifications: N-terminal acetylation (ac); lactam (isopeptide) bridge Q4-K14; disulfide bond C6-C13
notes: Made by solid phase synthesis on Rink Amide resin; also called Selected B1.1; oxidized B1.1 (with disulfide bridge)
For orientation: Kd means the concentration at which binding is half-saturated. Usually koff stands for a measure of how fast the partners let go of each other. A higher koff goes with a short-lived complex. In general, kon refers to the rate constant with which the complex forms. A higher kon goes with fast association. Regarding B8, the values for the dissociation constant (Kd) in assay [2], in assay [3] and in assay [6] were 105 nM, 161 nM and 43.5 nM, respectively. In addition, the off-rate (koff) in assay [3] is 0.0176 s⁻¹; in [4], 0.00674 s⁻¹; in assay [5], 0.0267 s⁻¹. For the same molecule, the kon in assay [3] worked out at 109000 M⁻¹ s⁻¹; in assay [4], 155000 M⁻¹ s⁻¹; in [5], 253000 M⁻¹ s⁻¹.

B9: AM7 (peptide)
peptide: Ac-CWTIRDIAGTRC-NH2
modifications: bridge 1-12; also: bracket C1-C12, bond type not given here
notes: Member of the JP5 alanine mutant library; also called JP5 alanine mutant 7
In [1], B9 registered an SELECTION/INPUT of 1.53.

B10: AM6 (peptide)
peptide: Ac-CWTIRDANGTRC-NH2
modifications: bridge 1-12; also: bracket C1-C12, bond type not given here
notes: Member of the JP5 alanine mutant library; also called JP5 alanine mutant 6
Take B10: the SELECTION/INPUT in assay [1] worked out at 1.99.

B11: AM9 (peptide)
peptide: Ac-CWTIRDINGARC-NH2
modifications: bridge 1-12; also: bracket C1-C12, bond type not given here
notes: Member of the JP5 alanine mutant library; also called JP5 alanine mutant 9
With B11, the SELECTION/INPUT in assay [1] is 0.422.

B12: reduced B1.1 (no disulfide bridge) (peptide)
peptide: WALQLCHSMFYTCKSG
modifications: no disulfide bridge (reduced cysteines C6 and C13); lactam bridge Q4-K14 and N-terminal acetylation as in B1.1
notes: also called reduced form of B1.1
On to B12, for which, in assay [5], the dissociation rate constant (koff) was 14.7 s⁻¹ and the association rate constant (kon) was 7.44e+07 M⁻¹ s⁻¹. In assay [7], binding was characterised by a dissociation constant (Kd) of 198 nM.

For Ac-CWTIRDINGTRCG-NH2 (linker 1-12 via DBX; reading uncertain, also called JP5 variant) [JP5, thioether (dibromoxylene) linked macrocyclic peptide from the DBX-mediated B7-H3 selection], the dissociation rate constant (koff) in assay [3] amounted to 0.0605 s⁻¹; in assay [5], 0.0966 s⁻¹. The kon is 102000 M⁻¹ s⁻¹ in assay [3] and 125000 M⁻¹ s⁻¹ in assay [5]. Further, the equilibrium dissociation constant (Kd) was determined as 591 nM in assay [8] and 772 nM in assay [9].
